Test [1] has as its target H2A-H2B histone dimer from Drosophila melanogaster (Drosophila melanogaster, UniProt P84051 2-121; P02283 2-123). The test is described as follows: ITC. Background: Isothermal titration calorimetry measures the heat released or taken up as one component is titrated into another.
Test [2] concerns the target (H3-H4)2 histone tetramer from Drosophila melanogaster (Drosophila melanogaster, UniProt P02299 2-136; P84040 2-103). The test is described as follows: ITC.

B1: APLF acidic domain (APLF^AD), Homo sapiens APLF residues 450-511, wild type (domain or fragment)
chain: DEDNDNVGQPNEYDLNDSFLDDEEEDYEPTDEDSDWEPGKEDEEKEDVEELLKEAKRFMKRK
The term Kd denotes the constant that tells how readily two partners part at equilibrium. Higher therefore signals lower affinity. B1: the Kd in test [1] is 940 nM; in test [2], 3810 nM.

These data come from PMC6101569 (Nucleic Acids Research, 2018).
